The values that follow come from US20260250391A1 (NEW YORK UNIVERSITY, published 2026).

Usually Kd stands for the equilibrium constant for the complex coming apart. Higher therefore signals a looser complex.

Substitutions are numbered along the chain they refer to.

For assay [1], the target named is T1, Human ICAM-2 extracellular region (UniProt ID P13598; residues 25-223), C-terminally fused to His6 and … (human, UniProt P13598 25-223, biotinylated with BirA (Avi-tag) when used as selection antigen).
T1 construct: range 25-223; Expressed from EXPI293 cells; also called hICAM-2; not shown: C-terminal His6 and Avi-tags
T1 sequence (looked up): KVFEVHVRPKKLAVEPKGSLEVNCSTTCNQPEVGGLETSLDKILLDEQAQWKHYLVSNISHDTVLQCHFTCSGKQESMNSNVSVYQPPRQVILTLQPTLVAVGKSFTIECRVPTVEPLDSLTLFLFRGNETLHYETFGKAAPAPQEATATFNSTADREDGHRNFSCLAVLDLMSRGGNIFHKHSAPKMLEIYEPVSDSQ
Put plainly: BLI (Octet): biotinylated monobody on streptavidin tips, human ICAM-2 in solution; global 1:1 fit without the highest concentration. On the procedure:
(§1) The four monobody samples identified in Example 1 were produced as purified proteins with N-terminal tags containing His6 and Avi-tag, followed by enzymatic biotinylation using the BirA enzyme. The proteins were immobilized on streptavidin-coated biolayer interferometry (BLI) tips using an Octet instrument (Sartorius) and their interaction with human ICAM-2 was monitored with the instrument (FIG. 1).
FIG. 1 depicts BLI sensorgrams. The global fitting of the 1:1 binding model was performed on the data after excluding the highest concentration sensorgrams, because the association rates in the highest concentration data are too high for accurate fitting. The KD values from the global fitting are shown.
In general terms: Biolayer interferometry detects binding as a change in optical thickness at a sensor tip.

Assay [2] concerns the target T2, Pig ICAM-2 extracellular region (UniProt ID Q6VY03; residues 24-250), C-terminally fused to His6 and Avi-tags (pig, UniProt Q6VY03 24-250, Possibly biotinylated on the Avi-tag, as for human ICAM-2 in Example 1; this is not stated for pig. The tag is not included in the letters.).
T2 construct: also called pICAM-2
T2 sequence: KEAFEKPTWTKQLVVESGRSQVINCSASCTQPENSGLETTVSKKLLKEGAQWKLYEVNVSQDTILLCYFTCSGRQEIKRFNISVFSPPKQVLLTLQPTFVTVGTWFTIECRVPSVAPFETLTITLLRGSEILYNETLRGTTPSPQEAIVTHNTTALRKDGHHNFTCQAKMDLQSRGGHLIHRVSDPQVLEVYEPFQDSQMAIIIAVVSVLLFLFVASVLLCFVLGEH
In words: BLI (Octet) of the monobody with pig ICAM-2.
From the text: as §1
Biolayer interferometry (BLI) for five of the monobodies (Mb_pICAM2_L1, Mb_pICAM2_L6, Mb_pICAM2_L11, Mb_pICAM2_L14, and Mb_pICAM2_L22) was carried out using the procedures and equipment described above (FIG. 5).

In assay [3] the target is T3, Endogenous human ICAM-2 on the surface of Primary Umbilical Vein Endothelial Cells (HUVEC) (human, UniProt P13598 25-275).
T3 construct: whole, on cells; also called cell surface ICAM-2; endogenous ICAM-2
T3 sequence (looked up): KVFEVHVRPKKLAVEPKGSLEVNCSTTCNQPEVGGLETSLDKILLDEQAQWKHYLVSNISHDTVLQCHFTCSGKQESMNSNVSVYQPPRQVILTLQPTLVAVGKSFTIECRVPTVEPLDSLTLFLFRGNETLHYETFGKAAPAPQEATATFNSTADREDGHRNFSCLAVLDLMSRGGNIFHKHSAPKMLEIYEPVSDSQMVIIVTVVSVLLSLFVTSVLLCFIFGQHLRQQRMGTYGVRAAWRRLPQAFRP
Put plainly: Flow cytometry (MFI) of negative control monobody bound to streptavidin DyLight 650 on HUVEC; concentration as monomer [panel B]. As to the method:
Whether Mb_ICAM2_S40 detected endogenous ICAM-2 molecules expressed on the surface of human cells was tested. […] The expression of ICAM-2 in HUVEC but not in Expi293 was confirmed using a commercially available anti-hICAM-2 antibody (FIG. 2D).
Background: In flow cytometry, cells or beads pass a laser one at a time.

B1: Mb_ICAM2_S40 (designed binder)
chain: VSSVPTKLEVVAATPTSLLISWDAPAVTVLYYFITYGETGGNSPVQEFAVPGSKSTATISGLKPGVDYTITVYALSSKWRYSPISINYRT
modifications: biotin on the Avi-tag (enzymatic biotinylation with BirA) in the BLI and flow cytometry assays
notes: Monobody (FN3 domain from human 10FN3); Purified form carries N-terminal His6 and Avi tags; not shown: N-terminal tags containing His6 and Avi-tag
In the case of B1, the “apparent Kd (pooled screen)” value in assay [1] turned out to be 14 nM.

B2: Mb_ICAM2_S32 (designed binder)
chain: B1 chain with L75I, S76N, S77Q, K78Y, R80K
modifications: biotin on the Avi-tag (enzymatic biotinylation with BirA) in the BLI assay
notes: as for B1
In the case of B2, the Kd in assay [1] was determined as 5.9 nM.

B3: Mb_ICAM2_S36 (designed binder)
chain: B1 chain with G41H, N42G, P44A, V45Y, S76W, S77Y, W79G, R80I, Y81T
modifications: biotin on the Avi-tag (enzymatic biotinylation with BirA) in the BLI assay
notes: as for B1
B3 yielded a Kd in assay [1] of 4.5 nM.

B4: Mb_pICAM2_L1 (designed binder)
chain: VSSVPTKLEVVAATPTSLLISWDAGYWSSVAYYRITYGETGGNSPVQEFTVPGSSSTATISGLKPGVDYTITVYAMTSGYSWYSPISINYRT
notes: Identified by yeast display
In assay [2], B4 gave a Kd of 19.3 nM.

B5: Mb_pICAM2_L22 (designed binder)
chain: B4 chain with S56Y, M76K, G79D
notes: Identified by yeast display
In turn, B5 yielded a Kd in assay [2] of 16.8 nM.

B6: Mb_pICAM2_L6 (designed binder)
chain: B4 chain with G53S, M76Q, G79M
notes: Identified by yeast display
For B6, binding in assay [2] was put at a Kd of 14 nM.

B7: Mb_pICAM2_L11 (designed binder)
chain: B4 chain with G53S
notes: Identified by yeast display
On to B7, for which the Kd in assay [2] is 12.1 nM.

B8: Mb_pICAM2_L14 (designed binder)
chain: B4 chain with A31S, S56Y, M76Q, G79Y
notes: Identified by yeast display
In assay [2], B8 gave a Kd of 11.8 nM.

B9: Mb_ICAM2_S38 (designed binder)
chain: VSSVPTKLEVVAATPTSLLISWDAPAVTVLYYFITYGETGPASYGAQEFAVPGSKSTATISGLKPGVDYTITVYAISNKWKYSPISINYRT
modifications: biotin on the Avi-tag (enzymatic biotinylation with BirA) in the BLI assay
notes: as for B1
B9 returned a Kd in assay [1] of 26 nM.

B10: Negative control monobody (SEQ ID NO: 34) (designed binder)
chain: VSSVPTKLEVVAATPTSLLISWDASSSSVSYYRITYGETGGNSPVQEFTVPGSKSTATISGLKPGVDYTITVYASSSSSSSSSSSKPISINYRT
notes: Tested conjugated to streptavidin DyLight 650; The tags and biotinylation of this control are not described
On to B10, for which, in assay [3], the binding result is recorded as “no binding (tested: 200 nM)”.
